Tests used:
rat FcRn (rat) = rat FcRn (rat) (UniProt P13599); experiment: SPR, ProteOn XPR36; antibody amine-coupled to GLM chip, FcRn 8-2048 nM as analyte, equilibrium fit, pH 6.0
Mouse FcRn (mouse) = Mouse FcRn (mouse) (UniProt Q61559); experiment: as above
Cyno FcRn (cyno) = Cyno FcRn (cyno) (UniProt Q8SPV9); experiment: as above
Human FcRn (human) = Human FcRn (human) (UniProt P55899); experiment: as above
Fcγ (Val) = Fcγ (Val) (UniProt P08637); experiment: SPR, ProteOn XPR36; antibody amine-coupled to GLM chip, receptor 8-2048 nM as analyte, equilibrium fit, pH 7.4
Fcγ1 = Fcγ1 (UniProt P12314); experiment: as above
Fcγ3a (Phe) = Fcγ3a (Phe) (UniProt P08637); experiment: as above
Fcγ2a (Arg) = Fcγ2a (Arg) (UniProt P12318); experiment: as above
Fcγ2a (Arg), sequence (P12318 34-217 H167R): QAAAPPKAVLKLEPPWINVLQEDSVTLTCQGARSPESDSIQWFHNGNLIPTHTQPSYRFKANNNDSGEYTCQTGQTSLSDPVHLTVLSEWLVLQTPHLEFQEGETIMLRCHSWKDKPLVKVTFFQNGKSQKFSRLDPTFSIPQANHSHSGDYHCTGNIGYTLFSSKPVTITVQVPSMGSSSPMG

rat FcRn (rat), sequence (P13599 23-298 limits assumed, form in doubt, chain 1 of 2): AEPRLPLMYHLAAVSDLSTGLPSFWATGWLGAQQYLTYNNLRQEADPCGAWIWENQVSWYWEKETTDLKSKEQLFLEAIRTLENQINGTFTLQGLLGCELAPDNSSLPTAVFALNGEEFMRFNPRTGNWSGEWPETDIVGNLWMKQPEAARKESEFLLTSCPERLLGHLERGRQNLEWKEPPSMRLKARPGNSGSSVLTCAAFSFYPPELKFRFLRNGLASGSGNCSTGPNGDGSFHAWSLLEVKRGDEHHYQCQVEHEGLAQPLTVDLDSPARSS
rat FcRn (rat), sequence (chain, as listed by the source limits assumed, form in doubt, chain 2 of 2): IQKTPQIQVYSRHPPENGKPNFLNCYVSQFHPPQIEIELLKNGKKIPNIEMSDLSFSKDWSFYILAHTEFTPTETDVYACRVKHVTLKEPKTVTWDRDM
Human FcRn (human), sequence (P55899 24-297 limits assumed, chain 1 of 2): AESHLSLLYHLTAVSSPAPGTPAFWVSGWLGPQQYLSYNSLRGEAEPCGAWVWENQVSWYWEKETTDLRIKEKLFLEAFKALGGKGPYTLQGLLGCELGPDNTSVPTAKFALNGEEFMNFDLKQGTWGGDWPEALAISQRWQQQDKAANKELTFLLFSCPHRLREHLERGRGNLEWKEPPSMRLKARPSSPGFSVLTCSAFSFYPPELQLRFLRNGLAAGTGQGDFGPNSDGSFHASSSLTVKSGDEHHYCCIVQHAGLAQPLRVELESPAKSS
Human FcRn (human), sequence (chain, as listed by the source limits assumed, chain 2 of 2): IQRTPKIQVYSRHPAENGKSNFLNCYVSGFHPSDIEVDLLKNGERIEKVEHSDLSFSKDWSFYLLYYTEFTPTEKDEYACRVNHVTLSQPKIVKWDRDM
Mouse FcRn (mouse), sequence (Q61559 22-297 limits assumed, form in doubt, chain 1 of 2): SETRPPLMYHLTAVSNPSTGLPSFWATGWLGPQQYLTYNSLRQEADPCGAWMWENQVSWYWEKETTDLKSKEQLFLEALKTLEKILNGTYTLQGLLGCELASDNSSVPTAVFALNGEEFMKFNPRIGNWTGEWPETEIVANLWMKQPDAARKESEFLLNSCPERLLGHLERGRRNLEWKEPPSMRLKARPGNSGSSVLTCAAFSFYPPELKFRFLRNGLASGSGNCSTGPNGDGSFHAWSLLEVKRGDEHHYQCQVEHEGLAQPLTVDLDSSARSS
Mouse FcRn (mouse), sequence (chain, as listed by the source limits assumed, form in doubt, chain 2 of 2): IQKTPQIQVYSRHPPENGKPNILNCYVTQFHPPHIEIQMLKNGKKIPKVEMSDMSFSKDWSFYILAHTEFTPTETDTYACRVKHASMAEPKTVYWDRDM
Fcγ1, sequence (P12314 16-288): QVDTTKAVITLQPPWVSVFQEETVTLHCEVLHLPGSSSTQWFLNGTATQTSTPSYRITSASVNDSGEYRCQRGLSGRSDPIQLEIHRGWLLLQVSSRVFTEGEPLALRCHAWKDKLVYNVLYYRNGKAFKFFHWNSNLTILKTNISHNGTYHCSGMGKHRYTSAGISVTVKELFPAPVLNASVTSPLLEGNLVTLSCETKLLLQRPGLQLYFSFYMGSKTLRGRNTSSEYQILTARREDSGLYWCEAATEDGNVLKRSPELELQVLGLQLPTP
Fcγ (Val), sequence (P08637 17-208 F176V): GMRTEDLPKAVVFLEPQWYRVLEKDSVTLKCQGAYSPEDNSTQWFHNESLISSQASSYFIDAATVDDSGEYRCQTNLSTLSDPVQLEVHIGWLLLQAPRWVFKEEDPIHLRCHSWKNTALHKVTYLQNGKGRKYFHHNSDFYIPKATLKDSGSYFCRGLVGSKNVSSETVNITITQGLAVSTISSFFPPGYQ
Fcγ3a (Phe), sequence (P08637 17-208): as the sequence (P08637 17-208 F176V) above, with V160F counted along it

| Substance | Kd (rat FcRn (rat)) | Kd (Mouse FcRn (mouse)) | Kd (Cyno FcRn (cyno)) | Kd (Human FcRn (human)) | Kd (Fcγ (Val)) | Kd (Fcγ1) | Kd (Fcγ3a (Phe)) | Kd (Fcγ2a (Arg)) |
| --- | --- | --- | --- | --- | --- | --- | --- | --- |
| Control Ab (Fc disabled) (antibody) | 0.118 µM | 0.171 µM | 0.195 µM | 0.154 µM |  |  |  |  |
| Control Ab (Fc WT) (antibody) | 0.112 µM | 0.16 µM | 0.156 µM | 0.095 µM | 0.442 µM | 0.0149 µM | 1.84 µM | 1.29 µM |
